# Results reported in article PMC5787919, “A feedback regulatory model for RifQ-mediated repression of rifamycin export in Amycolatopsis mediterranei” (Microbial Cell Factories, 2018).
# Target: the molecule itself
# Assay: SEC; gel filtration on Superdex 75, calibrated with the Low Molecular Weight kit (aprotinin 6.5 KD, ribonuclease A 14 KD, ovalbumin 44 KD; Blue Dextran 2000 for the void); molecular weight calculated from the retention time
protein,measurement,value
"RifQ, TetR-family transcriptional regulator of Amycolatopsis mediterranei S699 (natural protein, UniProt O52558 1-242, looked up, RifQ, TetR-family regulator encoded in the rifamycin biosynthetic (rif) cluster of Amycolatopsis mediterranei S699; Cloning between NdeI and XhoI of pET22b would usually give a C-terminal His6 tag (surmised); also called His-tagged RifQ; recombinant RifQ; source: E. coli BL21(DE3), pET22b-RifQ, purified (Ni-NTA gravity column)) MGKRASQPRESVWLSPRPARKHRAGESELDREKIVATAVRVLDAEGDAKFSMRLLAEELNVTPMSVYWYVANKDDLLELALDAVAGEIELPSLDDGNDWREDLRALARAWRRTMVAHPWAIRCYGEYLNIGPSSLRFTECAQAVMACSPLPLKDRSAALNVVFQYVYGFTATESRWLEHLAETGRTAEEFAAEVTGSMAAMSSTLEQGGLLERDGDQSMEQLRDRDFDRGLNWLFTGMVAGG",stoichiometry N,2
